Measurements from patent US20210380703A1 (RIGEL PHARMACEUTICALS, published 2021).

Experiments:
[1] = molecular target: Mouse ACVR2A (mouse, UniProt P27038 20-135, limits assumed); experiment: ELISA
Summary of the method: (§1)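 ELISA measured binding of ACVR2A-specific monoclonal antibodies to human and mouse ACVR2A. Biotinylated goat anti-human kappa light chain served as positive control and human Fc as negative control.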

[2] = molecular target: T1, Human ACVR2A (human, UniProt P27037 20-135, limits assumed); experiment: ELISA
T1 construct: also called activin receptor, type II A
Summary of the method: as §1

[3] = molecular target: T2, Goat anti-Human Kappa; experiment: ELISA; positive control
T2 construct: Positive control; also called biotinylated goat anti-human kappa light chain
Summary of the method: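 mAb binding by ELISA; antigens: hu ACVR2A, mu ACVR2A; pos ctrl biotinylated goat anti-hu kappa LC; neg ctrl hu Fc.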
Note: test concentration or dose not given here.

T1 sequence (P27037 20-135 limits assumed): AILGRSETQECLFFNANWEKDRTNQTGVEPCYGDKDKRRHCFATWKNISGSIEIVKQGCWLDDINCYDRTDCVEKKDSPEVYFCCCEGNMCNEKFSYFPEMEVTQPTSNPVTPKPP
Sequence of Mouse ACVR2A (P27038 20-135 limits assumed): as the sequence (P27037 20-135 limits assumed) above, with K20R, V73I counted along it

Binder | optical density [1] [OD] | optical density [2] [OD] | optical density [3] [OD]
374_H05 (antibody, V domains shown, VH/VL only) VH: EVQLLESGGGLVQPGGSLRLSCAASGFTFSSYSMNWVRQAPGKGLEWVAGINYNGGYTSYADSVKGRFTISRDNSKNTLYLQMNSLRAEDTAVYYCARGATWHDTHLDYWGQGTLVTVSS VL: DIQMTQSPSSLSASVGDRVTITCRASQSILSYVNWYQQKPGKAPKLVIYAATSRASGVPSRFSGSGSGTDFTLTISSLQPEDFATYYCQQSYDNPLTFGGGTKVEIK | 3.3 | 3.31 | 3.04
365_C01 (antibody, V domains shown, VH/VL only) VH: EVQLLESGGGLVQPGGSLRLSCAASGFTFDSYGMNWVRQAPGKGLEWVSSINYNSGYKSYADSVKGRFTISRDNSKNTLYLQMNSLRAEDTAVYYCARSANWHDTHLDYWGQGTLVTVSS VL: DIQMTQSPSSLSASVGDRVTITCRASQSIVSYLNWYQQKPGKAPKLVIYAVTSRASGVPSRFSGSGSGTDFTLTISSLQPEDFATYYCQQSYESPLTFGGGTKVEIK | 3.02 | 2.87 | 3.63
365_B01 (antibody, V domains shown, VH/VL only) VH: EVQLLESGGGLVQPGGSLRLSCAASGFTFDSYGMHWVRQAPGKGLEWVASINYNSGYTSYADSVKGRFTISRDNSKNTLYLQMNSLRAEDTAVYYCARSANWHDTALDYWGQGTLVTVSS VL: DIQMTQSPSSLSASVGDRVTITCRASQSISSYVNWYQQKPGKAPKLVIYAATSRASGVPSRFSGSGSGTDFTLTISSLQPEDFATYYCQQSYESPLTFGGGTKVEIK | 2.65 | 2.39 | 3.49
365_B06 (antibody, V domains shown, VH/VL only) VH: EVQLLESGGGLVQPGGSLRLSCAASGFTFDSYGMHWVRQAPGKGLEWVSNINYNGGYKSYADSVKGRFTISRDNSKNTLYLQMNSLRAEDTAVYYCARSANWHDTALDYWGQGTLVTVSS VL: DIQMTQSPSSLSASVGDRVTITCRASQSILTYVNWYQQKPGKAPKLLIYATTSLASGVPSRFSGSGSGTDFTLTISSLQPEDFATYYCQQSYDLPLTFGGGTKVEIK | 2.42 | 2.25 | 3.28
375_C11 (antibody, V domains shown, VH/VL only) VH: EVQLLESGGGLVQPGGSLRLSCAASGFTFSSYSMNWVRQAPGKGLEWVSSINYNGGYTSYADSVKGRFTISRDNSKNTLYLQMNSLRAEDTAVYYCARGATWHDTHLDYWGQGTLVTVSS VL: DIQMTQSPSSLSASVGDRVTITCRASQSILSYVNWYQQKPGKAPKLLIYAATSRHSGVPSRFSGSGSGTDFTLTISSLQPEDFATYYCQQSYDTPLTFGGGTKVEIK | 3.61 | 3.59 | 3.26
375_F10 (antibody, V domains shown, VH/VL only) VH: EVQLLESGGGLVQPGGSLRLSCAASGFTFSSYSMNWVRQAPGKGLEWVSGINYNGGYTGYADSVKGRFTISRDNSKNTLYLQMNSLRAEDTAVYYCARGATWHDTHLDYWGQGTLVTVSS VL: DIQMTQSPSSLSASVGDRVTITCRASQSILTYLNWYQQKPGKAPKLVIYAATSRASGVPSRFSGSGSGTDFTLTISSLQPEDFATYYCQQSYDTPLTFGGGTKVEIK | 3.77 | 3.69 | 3.29
375_C01 (antibody, V domains shown, VH/VL only) VH: EVQLLESGGGLVQPGGSLRLSCAASGFTFSSYGMNWVRQAPGKGLEWVSSINYNGGYKGYADSVKGRFTISRDNSKNTLYLQMNSLRAEDTAVYYCARGATWHDTHLDYWGQGTLVTVSS VL: not shown | 3.27 | 2.96 | 3.14
375_A03 (antibody, V domains shown, VH/VL only) VH: EVQLLESGGGLVQPGGSLRLSCAASGFTFDSYSMNWVRQAPGKGLEWVAGINYNGGYTSYADSVKGRFTISRDNSKNTLYLQMNSLRAEDTAVYYCARGATWHDTHLDYWGQGTLVTVSS VL: DIQMTQSPSSLSASVGDRVTITCRASQSILTYLNWYQQKPGKAPKLLIYAATSRHSGVPSRFSGSGSGTDFTLTISSLQPEDFATYYCQQSYDNPLTFGGGTKVEIK | 3.62 | 3.62 | 3.09

Now from value to binder:

optical density [1] [OD] | optical density [2] [OD] | optical density [3] [OD] | Binder
3.34 | 3.31 | 3.51 | 376_H04 (antibody, V domains shown, VH/VL only) VH: EVQLLESGGGLVQPGGSLRLSCAASGFTFSSYSMNWVRQAPGKGLEWVAGINYNGGYKGYADSVKGRFTISRDNSKNTLYLQMNSLRAEDTAVYYCARGANWHDTALDYWGQGTLVTVSS VL: DIQMTQSPSSLSASVGDRVTITCRASQSILTYVNWYQQKPGKAPKLVIYAATSRASGVPSRFSGSGSGTDFTLTISSLQPEDFATYYCQQSYDLPLTFGGGTKVEIK
3.58 | 3.42 | 3.49 | 376_G06 (antibody, V domains shown, VH/VL only) VH: EVQLLESGGGLVQPGGSLRLSCAASGFTFSSYGMNWVRQAPGKGLEWVAGINYNGGYTGYADSVKGRFTISRDNSKNTLYLQMNSLRAEDTAVYYCARGANWHDTHLDYWGQGTLVTVSS VL: DIQMTQSPSSLSASVGDRVTITCRASQSIVSYVNWYQQKPGKAPKLVIYAATSRASGVPSRFSGSGSGTDFTLTISSLQPEDFATYYCQQSYNSPLTFGGGTKVEIK
3.64 | 3.65 | 3.18 | 376_A05 (antibody, V domains shown, VH/VL only) VH: EVQLLESGGGLVQPGGSLRLSCAASGFTFSSYSMNWVRQAPGKGLEWVAGINYNSGYKGYADSVKGRFTISRDNSKNTLYLQMNSLRAEDTAVYYCARGATWHDTHLDYWGQGTLVTVSS VL: DIQMTQSPSSLSASVGDRVTITCRASQSILTYLNWYQQKPGKAPKLLIYAATSRASGVPSRFSGSGSGTDFTLTISSLQPEDFATYYCQQSYNTPLTFGGGTKVEIK
3.52 | 3.54 | 3.54 | 376_G10 (antibody, V domains shown, VH/VL only) VH: EVQLLESGGGLVQPGGSLRLSCAASGFTFDSYGMNWVRQAPGKGLEWVAGINYNGGYTSYADSVKGRFTISRDNSKNTLYLQMNSLRAEDTAVYYCARGANWHDTALDYWGQGTLVTVSS VL: DIQMTQSPSSLSASVGDRVTITCRASQSILSYVNWYQQKPGKAPKLLIYAATSRASGVPSRFSGSGSGTDFTLTISSLQPEDFATYYCQQSYESPLTFGGGTKVEIK
3.72 | 3.7 | 3.19 | 376_A07 (antibody, V domains shown, VH/VL only) VH: EVQLLESGGGLVQPGGSLRLSCAASGFTFSSYSMNWVRQAPGKGLEWVSGINYNGGYKSYADSVKGRFTISRDNSKNTLYLQMNSLRAEDTAVYYCARGATWHDTHLDYWGQGTLVTVSS VL: DIQMTQSPSSLSASVGDRVTITCRASQSILTYLNWYQQKPGKAPKLLIYAATSRASGVPSRFSGSGSGTDFTLTISSLQPEDFATYYCQQSYDSPLTFGGGTKVEIK
3.31 | 3.11 | 3.28 | 376_H01 (antibody, V domains shown, VH/VL only) VH: EVQLLESGGGLVQPGGSLRLSCAASGFTFSDYSMNWVRQAPGKGLEWVAGINYNGGYKGYADSVKGRFTISRDNSKNTLYLQMNSLRAEDTAVYYCARGANWHDTALDYWGQGTLVTVSS VL: DIQMTQSPSSLSASVGDRVTITCRASQSILTYLNWYQQKPGKAPKLLIYAATSRASGVPSRFSGSGSGTDFTLTISSLQPEDFATYYCQQSYSTPLTFGGGTKVEIK
3.63 | 3.72 | 3.19 | 376_A02 (antibody, V domains shown, VH/VL only) VH: EVQLLESGGGLVQPGGSLRLSCAASGFTFSSYSMNWVRQAPGKGLEWVAGINYNGGYKSYADSVKGRFTISRDNSKNTLYLQMNSLRAEDTAVYYCARGATWHDTHLDYWGQGTLVTVSS VL: DIQMTQSPSSLSASVGDRVTITCRASQSILSYLNWYQQKPGKAPKLLIYAATSRASGVPSRFSGSGSGTDFTLTISSLQPEDFATYYCQQSYDLPLTFGGGTKVEIK
3.28 | 3.31 | 3.32 | 375_H08 (antibody, V domains shown, VH/VL only) VH: EVQLLESGGGLVQPGGSLRLSCAASGFTFSSYSMNWVRQAPGKGLEWVSGINYNGGYTSYADSVKGRFTISRDNSKNTLYLQMNSLRAEDTAVYYCARGATWHDTHLDYWGQGTLVTVSS VL: DIQMTQSPSSLSASVGDRVTITCRASQSILTYLNWYQQKPGKAPKLLIYAATSLASGVPSRFSGSGSGTDFTLTISSLQPEDFATYYCQQSYDSPLTFGGGTKVEIK
3.65 | 3.52 | 3.47 | 376_F06 (antibody, V domains shown, VH/VL only) VH: EVQLLESGGGLVQPGGSLRLSCAASGFTFSSYGMNWVRQAPGKGLEWVSGINYNGGYTGYADSVKGRFTISRDNSKNTLYLQMNSLRAEDTAVYYCARGANWHDTHLDYWGQGTLVTVSS VL: DIQMTQSPSSLSASVGDRVTITCRASQSILTYVNWYQQKPGKAPKLVIYAATSRASGVPSRFSGSGSGTDFTLTISSLQPEDFATYYCQQSYETPLTFGGGTKVEIK
3.31 | 3.29 | 3.43 | 376_H11 (antibody, V domains shown, VH/VL only) VH: EVQLLESGGGLVQPGGSLRLSCAASGFTFDSYSMNWVRQAPGKGLEWVSNINYNGGYTGYADSVKGRFTISRDNSKNTLYLQMNSLRAEDTAVYYCARGANWHDTALDYWGQGTLVTVSS VL: DIQMTQSPSSLSASVGDRVTITCRASQSISRYLNWYQQKPGKAPKLLIYAVTSLASGVPSRFSGSGSGTDFTLTISSLQPEDFATYYCQQSYESPLTFGGGTKVEIK
3.77 | 3.75 | 3.49 | 376_G05 (antibody, V domains shown, VH/VL only) VH: EVQLLESGGGLVQPGGSLRLSCAASGFTFSSYSMNWVRQAPGKGLEWVAGINYNGGYTSYADSVKGRFTISRDNSKNTLYLQMNSLRAEDTAVYYCARGANWHDTALDYWGQGTLVTVSS VL: DIQMTQSPSSLSASVGDRVTITCRASQSIISYVNWYQQKPGKAPKLVIYAATSRASGVPSRFSGSGSGTDFTLTISSLQPEDFATYYCQQSYESPLTFGGGTKVEIK
